Where no end group is shown, it is not given here. [ ]: non-standard residue; d: D form. FAM = 5-(and 6-)carboxyfluorescein; resin = not defined here; Ahx = NCCCCCC(=O)O
What was measured:
[1] = molecular target: T1, memapsin 2 (spontaneously activated promemapsin 2-T1; amino acids 43-456 and 45-456 of SEQ ID NO: 8) (human, UniProt P56817 41-454); assay: kinetic inhibition of memapsin 2, fluorogenic substrate
T1 construct: also called Mep2; M2

[2] = molecular target: T2, memapsin 1 (amino acid residues 58-461 of SEQ ID NO: 4) (Homo sapiens (Human), UniProt Q9Y5Z0 63-466); assay: ratio of Ki apparent for memapsin 1 to that for memapsin 2
T2 construct: also called Mep1; M1
T2 sequence: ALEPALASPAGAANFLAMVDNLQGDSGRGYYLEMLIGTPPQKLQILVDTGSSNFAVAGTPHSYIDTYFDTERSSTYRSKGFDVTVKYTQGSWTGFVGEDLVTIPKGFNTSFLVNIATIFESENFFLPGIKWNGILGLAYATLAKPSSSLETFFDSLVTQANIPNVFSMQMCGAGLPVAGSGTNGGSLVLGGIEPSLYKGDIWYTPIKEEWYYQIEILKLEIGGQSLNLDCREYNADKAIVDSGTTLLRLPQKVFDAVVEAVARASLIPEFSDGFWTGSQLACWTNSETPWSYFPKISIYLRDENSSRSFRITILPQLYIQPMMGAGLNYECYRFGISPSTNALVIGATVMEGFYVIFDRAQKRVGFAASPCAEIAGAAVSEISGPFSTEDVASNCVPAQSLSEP

[3] = molecular target: T1, memapsin 2 (spontaneously activated …); assay: inhibition of cleavage of a fluorogenic substrate
[4] = molecular target: T2, memapsin 1 (amino acid residues 58-461 …); assay: inhibition of cleavage of fluorogenic substrate FS-2
[5] = molecular target: T1, memapsin 2 (spontaneously activated …); assay: as above
[6] = molecular target: T1, memapsin 2 (spontaneously activated …); assay: bead library probed with 4 nM memapsin 2, OM99-2 wash, anti-memapsin 2 IgG and alkaline phosphatase staining

T1 sequence (P56817 41-454 Q214G): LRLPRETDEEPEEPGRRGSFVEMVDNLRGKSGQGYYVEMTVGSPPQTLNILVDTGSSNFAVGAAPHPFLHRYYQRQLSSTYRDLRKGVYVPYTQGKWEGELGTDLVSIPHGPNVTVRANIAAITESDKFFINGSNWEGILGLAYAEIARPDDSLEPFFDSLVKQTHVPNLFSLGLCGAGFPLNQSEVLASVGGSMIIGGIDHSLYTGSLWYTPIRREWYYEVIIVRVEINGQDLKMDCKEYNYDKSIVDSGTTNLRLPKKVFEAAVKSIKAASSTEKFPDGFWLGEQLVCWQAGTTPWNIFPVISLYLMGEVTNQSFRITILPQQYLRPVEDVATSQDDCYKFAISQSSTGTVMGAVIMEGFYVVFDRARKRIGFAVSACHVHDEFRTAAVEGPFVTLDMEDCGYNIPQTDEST

B1: CPI-1: FAM-Ahx-(EVNL*AAEF)-G-([…]) (peptide)
peptide: {FAM-Ahx}-EVNLAAEFGYGRKKRRQRRR
modifications: numbers in words are those of the source; also: Leu4*Ala6: hydroxyethylene isostere -CH(OH)-CH2- replaces the amide bond
notes: OM99-2 joined through Gly to HIV tat residues 47-57; also called Fs[OM99-2]tat
Ki apparent [1]: 39 nM

B2: OM00-3 (ELDL*AVEF; Glu-Leu-Asp-Leu*Ala-Val-Glu-Phe) (peptide)
peptide: ELDLAVEF
modifications: numbers in words are those of the source; also: Leu4*Ala5: hydroxyethylene transition-state isostere -CH(OH)-CH2- replaces the peptide bond
Ki apparent (M1/M2) [2]: 0.59
Ki [3]: 0.31 nM
fold improvement of Ki relative to OM99-2 [3]: 5.2 fold
fold lower Ki than OM99-2 [3]: ~5 fold
Ki apparent [4]: 0.18 nM
Ki apparent [5]: 0.31 nM

B3: CPI-3: (ELDL*AVEF)-GG-(RRRRRRRRR) (peptide)
peptide: ELDLAVEFGG[dR][dR][dR][dR][dR][dR][dR][dR][dR]
modifications: numbers in words are those of the source; also: Leu4*Ala6: hydroxyethylene isostere -CH(OH)-CH2- replaces the amide bond
Ki [1]: 35 nM

B4: CPI-2: FAM-Ahx-(ELDL*AVEF)-GG-(RRRRRRRRR) (peptide)
peptide: {FAM-Ahx}-ELDLAVEFGG[dR][dR][dR][dR][dR][dR][dR][dR][dR]
modifications: numbers in words are those of the source; also: Leu4*Ala6: hydroxyethylene isostere -CH(OH)-CH2- replaces the amide bond
notes: OM00-3 joined through Gly-Gly to nine D-arginines
Ki apparent [1]: 58 nM

B5: library bead Gly-Ile-Asp-Leu*Ala-Ala-Gln-Phe-Arg-Met-Gly-Gly-resin (peptide)
peptide: GIDLAAQFRMGG-resin
modifications: reading uncertain; also: hydroxyethylene isostere between Leu4 and Ala5, printed as Gly-Ile-Asp-Leu*Ala-Ala-Gln-Phe-Arg-Met-Gly-Gly-resin
binding result [6]: binds

From patent US20100267609A1 (OKLAHOMA MEDICAL RESEARCH FOUNDATION, published 2010)
